Experimental findings from paper PMC11052181, “The Post-Transcriptional Regulatory Protein CsrA Amplifies Its Targetome through Direct Interactions with Stress-Response Regulatory Hubs: The EvgA and AcnA Cases” are described below.

Holding throughout (conditions): protein: recombinant; chain copies: 2; label: 5'-32P
Data set [1] has as its target T1, CsrA (Escherichia coli, UniProt P69913 1-61). In words: EMSA; excess yeast total RNA; 0.5 nM 32P-RNA, 0-300 nM CsrA, 30 min, excess yeast total RNA; 10% native PAGE, 0.5x TBE, 4 C, 170 V; binding buffer, pH and temperature not stated (as in refs).
Data set [2] deals with T1, CsrA. The description is as above. The source holds these as a separate data set.
In data set [3] the target is T1, CsrA. In words: EMSA; excess yeast total RNA; reduced curve amplitude; 0.5 nM 32P-RNA, 0-300 nM CsrA, 30 min, excess yeast total RNA; 10% native PAGE, 0.5x TBE, 4 C, 170 V; binding buffer, pH and temperature not stated (as in refs).
The target of data set [4] is T1, CsrA. Description: EMSA; excess yeast total RNA; 0.5 nM 32P-RNA, 0-300 nM CsrA, 30 min, excess yeast total RNA; 10% native PAGE, 0.5x TBE, 4 C, 170 V; binding buffer, pH and temperature not stated (as in refs). This is another data set of the same source.

Numbering of substitutions follows the chain as printed.

T1 sequence (P69913 whole entry): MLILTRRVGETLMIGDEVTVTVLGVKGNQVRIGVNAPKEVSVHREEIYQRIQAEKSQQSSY

B1: evgA leader WT (T7-evgA-WT) (structured_RNA)
RNA: GGGAUAAUUACUUGUCGAAUUAUCUUAAAGGAAGCUCAGAUUUUCUUAUUUUUAUUGAGAAAAUGAGAUGACGCCUUAUGUCUGUAUUACUACAGGGAGAAGGGAGAUGCUUCAUUGCAAAGGGAAUAAUCUAUGAACGCAAUAAUUAUUGAUGACCAUCCUCUUGCUAUCGCAGCAAUUCGUAAUUUAUUGAUCAAAAACGAUAUUGAAAUCUUAGCAGAGUUGACUGAAG
With B1, the Kd (as a rule, the free concentration of one partner at which half of the binding sites on the other are occupied at equilibrium, for simple one-to-one binding) with CsrA [1] was roughly 83.7 nM.

B2: evgA GGA2 mutant (GGA to AGA) (structured_RNA)
RNA: B1 RNA with G96A
For the molecule B2, in the data set with CsrA [2], the binding signal was roughly 1.6 fold increase in Kd vs WT.

B3: evgA no GGAs mutant (structured_RNA)
RNA: B1 RNA with U25G, G30C, C74G, G96A, G103C, G122A, A125G, A126G
Regarding B3, the binding signal in the data set with CsrA [3] was roughly 2.8 fold increase in Kd vs WT.

B4: evgA all pred. sites mutant (PBS-I + PBS-II) (structured_RNA)
RNA: B1 RNA with A22U, U25G, G30C, G65A, G70C, G139C, A141U
Consider B4, for which the binding signal with CsrA [2] is roughly 1.2 fold increase in Kd vs WT.

B5: evgA GGA4 mutant (AGGGAA to AAGGGG) (structured_RNA)
RNA: B1 RNA with G122A, A125G, A126G
Take B5: in the data set with CsrA [2], the binding signal was roughly 2 fold increase in Kd vs WT.

B6: acnA leader WT (T7-acnA-WT) (structured_RNA)
RNA: GGGAUAAUUCACCCUGAAGAGAAUCAGGGCUUCGCAACCCUGUCAUUAAGGAGGAGCUAUGUCGUCAACCCUACGAGAAGCCAGUAAGGACACGUUGCAGGCCAAAGAUAAAACUUACCACUACUACAGCCUGCCGCUUGCUGCUAAAUCACUGGGCG
Regarding B6, the dissociation constant (Kd) with CsrA [1] is roughly 90.9 nM.

B7: acnA PBS-III mutant (mut3, AAAGAU to UAACUU) (structured_RNA)
RNA: B6 RNA with A104U, G107C, A108U
With B7, the binding signal in the data set with CsrA [4] was roughly 1.6 fold increase in Kd vs WT.

B8: acnA PBS-I mutant (mut1, GGAGGA to CCACCA) (structured_RNA)
RNA: B6 RNA with G50C, G51C, G53C, G54C, C63G
With B8, the binding signal with CsrA [4] is roughly 1.7 fold increase in Kd vs WT.

B9: acnA PBS-I & PBS-III double mutant (dm-1&3) (structured_RNA)
RNA: B6 RNA with G50C, G51C, G53C, G54C, C63G, A104U, G107C, A108U
Consider B9, for which, in the data set with CsrA [4], the binding signal is roughly 2 fold increase in Kd vs WT.
